Data taken from patent US20220119513A1 (ZOETIS SERVICES, published 2022).
Residue numbers refer to the chain shown, from its start. Names and notes keep the numbering of the source. Values belong to the binder of their own block, whether it stands above or below them.

Columns and labels:
TGFβ1 (R&D Systems) [1] = biological target: T1, TGFβ1 (R&D Systems); assay: single point SPR
T1 construct: also called TGFB1

TGFβ1 (R&D Systems) [2] = biological target: T1, TGFβ1 (R&D Systems); assay: cell-based or functional assay
TGFβ1 (R&D Systems) [3] = biological target: T1, TGFβ1 (R&D Systems); assay: SPR full titration
TGFβ2 (R&D Systems) [4] = biological target: T2, TGFβ2 (R&D Systems); assay: SPR full titration
T2 construct: also called TGFB2
T2 sequence (P61812 303-414, species assumed, looked up): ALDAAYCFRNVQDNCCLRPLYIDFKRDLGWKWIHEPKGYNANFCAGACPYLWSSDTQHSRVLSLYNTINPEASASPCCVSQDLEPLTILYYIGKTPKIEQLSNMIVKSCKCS

TGFβ3 (R&D Systems) [5] = biological target: T3, TGFβ3 (R&D Systems) (Homo sapiens (Human), UniProt P10600 301-412, Active TGFβ3 is a disulfide-linked homodimer of this chain; one copy is given.); assay: SPR full titration
T3 construct: also called TGFB3
T3 sequence: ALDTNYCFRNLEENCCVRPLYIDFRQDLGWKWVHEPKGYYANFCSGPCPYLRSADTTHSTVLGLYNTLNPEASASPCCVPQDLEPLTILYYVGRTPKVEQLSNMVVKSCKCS

TGFβ1 (R&D Systems) [6] = biological target: T1, TGFβ1 (R&D Systems); assay: SPR full titration; remark: listed apart in the source
TGFβ2 (R&D Systems) [7] = biological target: T2, TGFβ2 (R&D Systems); assay: cell-based or functional assay
TGFβ3 (R&D Systems) [8] = biological target: T3, TGFβ3 (R&D Systems); assay: cell-based or functional assay
TGFβ1 (R&D Systems) [9] = biological target: T1, TGFβ1 (R&D Systems); assay: cell-based or functional assay; remark: listed apart in the source

T1 sequence (P01137 279-390): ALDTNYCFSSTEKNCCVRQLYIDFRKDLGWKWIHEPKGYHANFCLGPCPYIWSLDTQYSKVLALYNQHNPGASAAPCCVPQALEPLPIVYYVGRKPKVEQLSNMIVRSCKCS

B3: Can-SL501-VH3 Q110E / Can-SL501-VL2 (antibody, V domains shown)
VH: EVQLVESGGDLVKPGGSLRLSCVASGFTFSSYGMHWVRQAPGKELEWVAVISYDGSIKYYADAVKGRFTISRDNAKNTLYLQMNSLRAEDTAVYYCARTGEYSGYDTDPEYSWGQGTTVTVSS
VL: EIVMTQSPGSLAGSAGESVSINCRASQGIGDDLGWYQQKPGERPKLLIYGTSTLQSGVPARFSSSGSGTDFTLTINNLQAEDVGDYYCLQDSNYPLTFGAGTK
Kd (TGFβ1 (R&D Systems) [1]): 13.5 nM
CMVIC pSmad-3, IC50 (TGFβ1 (R&D Systems) [2]): 6.65 nM
Kd (TGFβ1 (R&D Systems) [3]): 0.0657 nM

B5: Can-SL501-VH3 Q110N / Can-SL501-VL2 (antibody, V domains shown)
VH: B3 VH with E110N
VL: B3 VL
Kd (TGFβ1 (R&D Systems) [1]): 5.64 nM
CMVIC pSmad-3, IC50 (TGFβ1 (R&D Systems) [2]): 8.95 nM
Kd (TGFβ1 (R&D Systems) [3]): 0.0809 nM

B9: Can-SL501-VH3 Y111F / Can-SL501-VL2 (antibody, V domains shown)
VH: B3 VH with E110Q, Y111F
VL: B3 VL
Kd (TGFβ1 (R&D Systems) [1]): 8.04 nM
CMVIC pSmad-3, IC50 (TGFβ1 (R&D Systems) [2]): 43.3 nM
Kd (TGFβ1 (R&D Systems) [3]): 0.065 nM

B11: Can-SL501-VH3 Q110D / Can-SL501-VL2 (antibody, V domains shown)
VH: B3 VH with E110D
VL: B3 VL
Kd (TGFβ1 (R&D Systems) [1]): 8.01 nM
CMVIC pSmad-3, IC50 (TGFβ1 (R&D Systems) [2]): 4.83 nM
Kd (TGFβ1 (R&D Systems) [3]): 0.0503 nM

B12: affinity matured HcLb 189 (antibody, V domains shown)
VH: EVQLVQSGAEVKKPGASVKVSCKTSGYTFITYWMNWVRQAPGAGLDWMGQIFPAWGSTNYNEMFEGRVTLTADTSTSTAYMELSSLRAGDIAVYYCARGYGNYALDAMDYWGQGTLVTVSS
VL: DIVMTQTPPSLSVSPRETASISCRASESVDSYGNSFMHWYLQKPGQSPQLLIYLASNLESGVSDRFSGSGSGTDFTLRISRVEANDTGVYYCQQNDEDPLSFGQGTK
notes: full IgG; also called canHcLb/S55W/D100Y + canHcLb/237ND/242TS
Kd (TGFβ2 (R&D Systems) [4]): 0.922 nM
Kd (TGFβ3 (R&D Systems) [5]): 0.226 nM
Kd (TGFβ1 (R&D Systems) [6]): 2.65 nM
pSmad-3, IC50 (TGFβ2 (R&D Systems) [7]): 3.29 nM
pSmad-3, IC50 (TGFβ3 (R&D Systems) [8]): 2.13 nM
pSmad-3, IC50 (TGFβ1 (R&D Systems) [9]): 2.21 nM

B13: affinity matured HcLb 187 (antibody, V domains shown)
VH: B12 VH with A54G, W55S
VL: DIVMTQTPPSLSVSPRETASISCRASESVDSYGNSFMHWYLQKPGQSPQLLIYLASNLESGVSDRFSGSGSGTDFTLRISRVEANDTGVYYCQQNNEDPLTFGQ
pSmad-3, IC50 (TGFβ2 (R&D Systems) [7]): 2.08 nM
pSmad-3, IC50 (TGFβ3 (R&D Systems) [8]): 8.61 nM
pSmad-3, IC50 (TGFβ1 (R&D Systems) [9]): 0.82 nM

B14: affinity matured HcLb 188 (antibody, V domains shown)
VH: B12 VH
VL: B13 VL
notes: full IgG; constant regions not restated
Kd (TGFβ2 (R&D Systems) [4]): 0.937 nM
Kd (TGFβ3 (R&D Systems) [5]): 0.417 nM
Kd (TGFβ1 (R&D Systems) [6]): 3.96 nM
pSmad-3, IC50 (TGFβ2 (R&D Systems) [7]): 2.29 nM
pSmad-3, IC50 (TGFβ3 (R&D Systems) [8]): 1.46 nM
pSmad-3, IC50 (TGFβ1 (R&D Systems) [9]): 2.73 nM

Further binders by falling Kd (TGFβ1 (R&D Systems) [1]), results first:

Kd (TGFβ1 (R&D Systems) [1]): 5.11 nM
CMVIC pSmad-3, IC50 (TGFβ1 (R&D Systems) [2]): 30.5 nM
Kd (TGFβ1 (R&D Systems) [3]): 0.111 nM
B10: Can-SL501-VH3 Q110K / Can-SL501-VL2 (antibody, V domains shown)
VH: B3 VH with E110K
VL: B3 VL

Kd (TGFβ1 (R&D Systems) [1]): 1.11 nM
CMVIC pSmad-3, IC50 (TGFβ1 (R&D Systems) [2]): 32.6 nM
B6: Can-SL501-VH3 Y111L / Can-SL501-VL2 (antibody, V domains shown)
VH: B3 VH with E110Q, Y111L
VL: B3 VL

Kd (TGFβ1 (R&D Systems) [1]): 1.1 nM
CMVIC pSmad-3, IC50 (TGFβ1 (R&D Systems) [2]): 20.8 nM
Kd (TGFβ1 (R&D Systems) [3]): 0.135 nM
B7: Can-SL501-VH3 P109A / Can-SL501-VL2 (antibody, V domains shown)
VH: B3 VH with P109A, E110Q
VL: B3 VL

Kd (TGFβ1 (R&D Systems) [1]): 0.759 nM
CMVIC pSmad-3, IC50 (TGFβ1 (R&D Systems) [2]): 25.2 nM
Kd (TGFβ1 (R&D Systems) [3]): 0.0651 nM
B2: Can-SL501-VH3 D108R / Can-SL501-VL2 (antibody, V domains shown)
VH: B3 VH with D108R, E110Q
VL: B3 VL

Kd (TGFβ1 (R&D Systems) [1]): 0.752 nM
CMVIC pSmad-3, IC50 (TGFβ1 (R&D Systems) [2]): 30 nM
Kd (TGFβ1 (R&D Systems) [3]): 0.0836 nM
B4: Can-SL501-VH3 P109T / Can-SL501-VL2 (antibody, V domains shown)
VH: B3 VH with P109T, E110Q
VL: B3 VL

Kd (TGFβ1 (R&D Systems) [1]): 0.562 nM
CMVIC pSmad-3, IC50 (TGFβ1 (R&D Systems) [2]): 50.2 nM
Kd (TGFβ1 (R&D Systems) [3]): 0.0308 nM
B8: Can-SL501-VH3 Y111I / Can-SL501-VL2 (antibody, V domains shown)
VH: B3 VH with E110Q, Y111I
VL: B3 VL

Kd (TGFβ1 (R&D Systems) [1]): 0.283 nM
CMVIC pSmad-3, IC50 (TGFβ1 (R&D Systems) [2]): 10.9 nM
Kd (TGFβ1 (R&D Systems) [3]): 0.0346 nM
B1: Can-SL501-VH3 D108K / Can-SL501-VL2 (antibody, V domains shown)
VH: B3 VH with D108K, E110Q
VL: B3 VL
